From patent US9234007B2, “RGD mimetic γ-AApeptides and methods of use” (UNIVERSITY OF SOUTH FLORIDA, priority 2012, dated 2016) come the findings set out here.

In one data set the test system is integrin αvβ3. Description: in vivo. The conditions noted are these: mouse, iv; for Liver uptake, blocking group / Radioactivity in the blood, blocking group / U87MG tumor uptake, blocking: 10 mg/kg. More on the design: species or system mice. The method, then: (§1) PET scans at various time points post-injection (p.i.), as well as quantitative region-of-interest (ROI) analysis of the PET data, were performed as described previously.^14 Coronal and transaxial PET slices that contain the U87MG tumors are shown in FIG. 5A, and the quantitative data are shown in FIGS. 5B and 5C. […] PET scans were performed using an Inveon microPET/microCT rodent model scanner (Siemens Medical Solutions USA, Inc.). Each U87MG tumor-bearing mouse was injected with 5-10 MBq of the PET tracer via tail vein and 5 minute static PET scans were performed at various time points post-injection (p.i.). The images were reconstructed using a maximum a posteriori (MAP) algorithm, with no attenuation or scatter correction. For each microPET scan, three-dimensional (3D) regions-of-interest (ROIs) were drawn over the tumor and major organs by using vendor software (Inveon Research Workplace [IRW]) on decay-corrected whole-body images. Assuming a tissue density of 1 g/mL, the ROIs were converted to MBq/g using a conversion factor (pre-determined using a 20 mL centrifuge tube filled with ˜37 MBq of ^64CuCl2 as a phantom), and then divided by the total administered radioactivity to obtain an image ROI-derived percentage injected dose per gram of tissue (% ID/g).

A short description of the next data set: in vivo. More on the design: species or system mice. To be noted: female, nude, mouse, iv, 10 mg/kg, total radioactivity. The method, then: as §1

Usually tissue uptake stands for the share of the injected amount in each gram of the tissue. Turning to `N=C(N)NCCC(=O)N(CC(=O)NCCN(CC(N)=O)C(=O)CC(=O)O)C[C@H](Cc1ccccc1)NC(=O)CCCCCNC(=O)CN1CCN(CC(=O)O)CCN(CC(=O)O)CCN(CC(=O)O)CC1` [^64Cu-γ-AA2, metal not drawn], the clearance route result in the data set with integrin αvβ3 was “both hepatobiliary and renal clearance”. Further, in the data set on integrin αvβ3 (0.5 h), the “Liver uptake, blocking group” value is on record as 7.2±2.0 % ID/g; the U87MG tumor uptake is listed as 0.9±0.3 % ID/g; the tumor/muscle ratio turned out to be 3.8±0.9. In the data set with integrin αvβ3 (2 h), the “Liver uptake, blocking group” value is given as 6.1±1.6 % ID/g; the “Radioactivity in the blood, blocking group” value (shortened to “Radioactivity in the blood”) is 0.4±0.1 % ID/g; the “U87MG tumor uptake, blocking” value was 0.4±0.1 % ID/g; the U87MG tumor uptake turned out to be 1.0±0.2 % ID/g. Also, in the data set with integrin αvβ3 (2 h), the tumor/muscle ratio was found to be 4.8±1.8. For the same molecule, in the data set on integrin αvβ3 (4 h), the “Liver uptake, blocking group” value stood at 5.3±1.3 % ID/g; the “Radioactivity in the blood” value is on record as 0.4±0.1 % ID/g; the “U87MG tumor uptake, blocking” value amounted to 0.4±0.1 % ID/g; the U87MG tumor uptake is reported as 1.1±0.2 % ID/g. The tumor/muscle ratio in the data set on integrin αvβ3 (4 h) is reported as 5.8±1.4. Further, in the data set on integrin αvβ3 (24 h), the “Liver uptake, blocking group” value stood at 4.0±0.6 % ID/g; the “Radioactivity in the blood” value was 0.4±0.1 % ID/g; the “U87MG tumor uptake, blocking” value was 0.4±0.1 % ID/g; the U87MG tumor uptake stood at 0.7±0.2 % ID/g. In addition, the tumor/muscle ratio with integrin αvβ3 (24 h) stood at 8.3±3.9. The tissue uptake at 0.5 h in “in vivo” worked out at 0.5 ± 0.1 %ID/g.
